Results reported in US20020102606A1 (published 2002).

T1: PRAK NUC 201-1104 (bait, no mutation) (UniProt Q8IW41 1-301)
T1 construct: Limits printed as nucleotides only; also called Protein Kinase PRAK
T1 sequence (looked up): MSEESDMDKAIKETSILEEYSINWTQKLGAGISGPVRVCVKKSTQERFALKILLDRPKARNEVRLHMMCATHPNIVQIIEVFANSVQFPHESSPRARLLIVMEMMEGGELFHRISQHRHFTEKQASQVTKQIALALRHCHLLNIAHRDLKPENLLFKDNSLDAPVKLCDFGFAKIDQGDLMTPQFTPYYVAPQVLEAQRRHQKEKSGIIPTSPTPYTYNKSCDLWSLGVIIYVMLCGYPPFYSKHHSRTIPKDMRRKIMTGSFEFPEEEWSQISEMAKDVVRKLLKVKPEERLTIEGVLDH

T2: PRAK NUC 201-1104 K51M (bait) (UniProt Q8IW41 1-301)
T2 construct: Limits printed as nucleotides only; also called Protein Kinase PRAK
T2 sequence (looked up): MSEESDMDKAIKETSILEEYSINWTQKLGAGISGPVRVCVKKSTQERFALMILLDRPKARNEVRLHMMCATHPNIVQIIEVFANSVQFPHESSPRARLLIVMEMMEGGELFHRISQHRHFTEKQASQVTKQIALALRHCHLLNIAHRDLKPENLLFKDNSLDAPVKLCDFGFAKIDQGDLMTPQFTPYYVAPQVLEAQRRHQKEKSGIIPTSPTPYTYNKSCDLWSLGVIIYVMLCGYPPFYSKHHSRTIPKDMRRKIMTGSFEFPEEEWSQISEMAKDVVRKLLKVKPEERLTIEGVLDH

T3: PRAK NUC 201-1104 K51M, T182D (bait) (UniProt Q8IW41 1-301)
T3 construct: Limits printed as nucleotides only; also called Protein Kinase PRAK
T3 sequence (looked up): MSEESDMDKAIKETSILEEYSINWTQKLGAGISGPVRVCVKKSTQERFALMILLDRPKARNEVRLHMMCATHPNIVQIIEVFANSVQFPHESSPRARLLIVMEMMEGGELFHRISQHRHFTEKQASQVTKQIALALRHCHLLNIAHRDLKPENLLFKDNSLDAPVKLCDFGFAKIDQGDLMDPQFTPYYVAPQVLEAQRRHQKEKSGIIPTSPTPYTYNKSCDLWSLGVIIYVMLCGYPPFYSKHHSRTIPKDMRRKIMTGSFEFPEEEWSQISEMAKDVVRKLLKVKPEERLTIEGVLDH

T4: Profilin II amino acids 4-91 (prey) (human, UniProt P35080 4-91)
T4 construct: range 4-91
T4 sequence (looked up): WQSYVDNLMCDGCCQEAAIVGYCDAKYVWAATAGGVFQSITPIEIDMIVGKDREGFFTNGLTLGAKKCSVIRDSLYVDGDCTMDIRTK

T5: p38 gamma amino acids 29-368 (bait) (UniProt P53778 29-367)
T5 construct: range 29-368; also called Protein Kinase p38 gamma; p38 gamma kinase
T5 sequence (looked up): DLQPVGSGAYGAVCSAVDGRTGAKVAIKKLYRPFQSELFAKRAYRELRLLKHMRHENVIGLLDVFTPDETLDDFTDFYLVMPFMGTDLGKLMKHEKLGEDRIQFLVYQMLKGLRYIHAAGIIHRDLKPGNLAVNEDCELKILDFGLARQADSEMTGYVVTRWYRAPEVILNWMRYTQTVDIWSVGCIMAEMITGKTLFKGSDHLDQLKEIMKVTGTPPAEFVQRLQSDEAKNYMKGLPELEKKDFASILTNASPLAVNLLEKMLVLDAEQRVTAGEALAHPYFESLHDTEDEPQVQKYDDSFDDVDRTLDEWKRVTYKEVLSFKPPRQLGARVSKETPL

B1: Homer-3 NUC 720-1152 (prey) (other, human, UniProt Q9NSC5 210-354, looked up)
chain: AAQWRQQLEAQRAEAERLRQRVAELEAQAASEVTPTGEKEGLGQGQSLEQLEALVQTKDQEIQTLKSQTGGPREALEAAEREETQQKVQDLETRNAELEHQLRAMERSLEEARAERERARAEVGRAAQLLDVSLFELSELREGLA
B2: ERF-2 amino acids 7-192 (prey) (other, human, UniProt P47974 7-192, looked up)
chain: SAFYDVDFLCKTEKSLANLNLNNMLDKKAVGTPVAAAPSSGFAPGFLRRHSASNLHALAHPAPSPGSCSPKFPGAANGSSCGSAAAGGPTSYGTLKEPSGGGGTALLNKENKFRDRSFSENGDRSQHLLHLQQQQKGGGGSQINSTRYKTELCRPFEESGTCKYGEKCQFAHGFHELRSLTRHPKY
notes: range 7-192; also called TIS11D
B3: Vimentin amino acids 309-463 (prey) (other, human, UniProt P08670 309-463, looked up)
chain: LRQAKQESTEYRRQVQSLTCEVDALKGTNESLERQMREMEENFAVEAANYQDTIGRLQDEIQNMKEEMARHLREYQDLLNVKMALDIEIATYRKLLEGEESRISLPLPNFSSLNLRETNLDSLPLVDTHSKRTLLIKTVETRDGQVINETSQHHD
notes: range 309-463
B4: Nuclear Mitotic Apparatus Protein 1 (NuMA1) NUC 1395-1713 (prey) (other, human, UniProt Q14980 413-519, looked up)
chain: LQLETLKQEAATLAANNTQLQARVEMLETERGQQEAKLLAERGHFEEEKQQLSSLITDLQSSISNLSQAKEELEQASQAHGARLTAQVASLTSELTTLNATIQQQDQ
notes: range 413-519
B5: MLK2 amino acids 398-556 (prey) (enzyme, human, UniProt Q02779 398-556, looked up)
chain: LRSREEELLRAAQEQRFQEEQLRRREQELAEREMDIVERELHLLMCQLSQEKPRVRKRKGNFKRSRLLKLREGGSHISLPSGFEHKITVQASPTLDKRKGSDGASPPASPSIIPRLRAIRLTPVDCGGSSSGSSSGGSGTWSRGGPPKKEELVGGKKKG
notes: range 398-556; also called mixed lineage kinase
B6: Nuclear Mitotic Apparatus Protein 1 (NuMA1) NUC 1394-1711 (prey) (other, human, UniProt Q14980 413-519, looked up)
chain: LQLETLKQEAATLAANNTQLQARVEMLETERGQQEAKLLAERGHFEEEKQQLSSLITDLQSSISNLSQAKEELEQASQAHGARLTAQVASLTSELTTLNATIQQQDQ
notes: Limits printed as nucleotides only
B7: Histone Acetyl Transferase 1 (HAT1) amino acids 334-420 (prey) (enzyme, human, UniProt O14929 334-419, looked up)
chain: ILRLLVTDMSDAEQYRSYRLDIKRRLISPYKKKQRDLAKMRKCLRPEELTNQMNQIEISMQHEQLEESFQELVEDYRRVIERLAQE
notes: range 334-420
B8: Homer-3 NUC 774-1152 (prey) (other, human, UniProt Q9NSC5 228-354, looked up)
chain: RQRVAELEAQAASEVTPTGEKEGLGQGQSLEQLEALVQTKDQEIQTLKSQTGGPREALEAAEREETQQKVQDLETRNAELEHQLRAMERSLEEARAERERARAEVGRAAQLLDVSLFELSELREGLA
notes: as for B6
B9: DLG2 amino acids 294-594 (prey) (other, human, UniProt Q15700 294-594, looked up)
chain: THSYSPPMENHLLSGNNGTLEYKTSLPPISPGRYSPIPKHMLVDDDYTRPPEPVYSTVNKLCDKPASPRHYSPVECDKSFLLSAPYSHYHLGLLPDSEMTSHSQHSTATRQPSMTLQRAVSLEGEPRKVVLHKGSTGLGFNIVGGEDGEGIFVSFILAGGPADLSGELQRGDQILSVNGIDLRGASHEQAAAALKGAGQTVTIIAQYQPEDYARFEAKIHDLREQMMNHSMSSGSGSLRTNQKRSLYVRAMFDYDKSKDSGLPSQGLSFKYGDILHVINASDDEWWQARRVMLEGDSEEMG
notes: range 294-594; also called chapsyn-110

Columns and labels:
Test in all cases: yeast two-hybrid; prey clone found with the bait of the row
[1] = molecular target: T6, MAPKAP-K3 NUC 433-1003 (bait) (UniProt Q16644 114-304)
T6 construct: range 114-304; also called MAP Kinase MAPKAP-K3
T6 sequence (Q16644 114-304 limits assumed): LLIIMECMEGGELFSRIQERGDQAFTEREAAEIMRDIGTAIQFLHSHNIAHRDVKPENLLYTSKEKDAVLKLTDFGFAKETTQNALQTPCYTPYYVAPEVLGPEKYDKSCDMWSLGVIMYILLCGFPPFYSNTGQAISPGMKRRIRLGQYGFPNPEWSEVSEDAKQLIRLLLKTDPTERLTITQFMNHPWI
Text: (§1) A total human brain (person) cDNA library cloned into the yeast expression vector pACT2 was purchased from Clontech (human brain […] cDNA, cat. # HL4004AH), transformed into the yeast strain J692 (genotype of this strain: Mat a, ade2, his3, leu2, trp1, URA3::GAL1-lacZ LYS2::GAL1-HIS3 ga14del ga180del cyhR2), and selected for the ability to drive leucine synthesis. In these yeast cells, each cDNA is expressed as a fusion protein with the transcription activation domain of the transcription factor Ga14 (amino acids 768 to 881) and a 9 amino acid hemagglutinin epitope tag. J693 cells (Mat α type) expressing the bait were then mated with J692 cells (Mat a type) expressing proteins from the brain library. The resulting diploid yeast cells expressing proteins interacting with the bait protein were selected for the ability to synthesize tryptophan, leucine, histidine, and β-galactosidase. DNA was prepared from each clone, transformed by electroporation into E. coli strain KC8 (Clontech KC8 electrocompetent cells, cat. # C2023-1), and the cells were selected on ampicillin-containing plates in the absence of either tryptophane (selection for the bait plasmid) or leucine (selection for the brain library plasmid). DNA for both plasmids was prepared and sequenced by di-deoxynucleotide chain termination method. The identity of the bait cDNA insert was confirmed and the cDNA insert from the brain library plasmid was identified using BLAST program against public nucleotides and protein databases. Plasmids from the brain library (preys) were then individually transformed into yeast cells together with a plasmid driving the synthesis of lamin fused to the Ga14 DNA binding domain. Clones that gave a positive signal after β-galactosidase assay were considered false-positives and discarded. Plasmids for the remaining clones were transformed into yeast cells together with plasmid for the original bait. Clones that gave a positive signal after β-galactosidase assay were considered true positives.
(§2) The “AA” refers to the amino acids of the bait or prey. The “NUC” refers to the nucleotides of the bait or prey.

[2] = molecular target: T1, PRAK NUC 201-1104 (bait, no mutation)
Text: as §1, §2

[3] = molecular target: T2, PRAK NUC 201-1104 K51M (bait)
Text: as §1, §2

[4] = molecular target: T3, PRAK NUC 201-1104 K51M, T182D (bait)
Text: as §1, §2

[5] = molecular target: T4, Profilin II amino acids 4-91 (prey)
Text: as §1, §2

[6] = molecular target: T5, p38 gamma amino acids 29-368 (bait)
Text: as §1, §2

Binder | binding result [1] | binding result [4] | other results
B1 | binds |  | 
B2 | binds |  | 
B3 | binds |  | 
B4 | binds |  | 
B5 |  |  | binding result [2]: binds; binding result [3]: binds
B6 |  | binds | 
B7 |  | binds | 
B8 |  | binds | 
MMEDDGQPRTLYVGNLSRDVTEVLILQLFSQIGPCKSCKMITEHTSND (other) [TIAR amino acids 1-48 (bait)] |  |  | binding result [5]: binds
B9 |  |  | binding result [6]: binds
